From patent publication US20180333502A1 (published 2018)

T1: human GITR on cells (activated human T cells; 3A9-hGITR cells) (human, UniProt Q9Y5U5 26-241)
T1 chain: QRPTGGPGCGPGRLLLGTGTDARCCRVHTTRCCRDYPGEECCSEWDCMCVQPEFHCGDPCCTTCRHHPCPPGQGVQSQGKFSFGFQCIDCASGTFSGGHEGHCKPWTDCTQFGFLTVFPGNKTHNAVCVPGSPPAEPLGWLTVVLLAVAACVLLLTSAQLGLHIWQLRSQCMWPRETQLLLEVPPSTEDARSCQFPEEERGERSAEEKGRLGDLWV

B1: anti-GITR-IgG2 (antibody)
heavy: QVQLVESGGGVVQPGRSLRLSCAASGFTFSSYGMHWVRQAPGKGLEWVAVIWYEGSNKYYADSVKGRFTISRDNSKNTLYLQMNSLRAEDTAVYYCARGGSMVRGDYYYGMDVWGQGTTVTVSSASTKGPSVFPLAPCSRSTSESTAALGCLVKDYFPEPVTVSWNSGALTSGVHTFPAVLQSSGLYSLSSVVTVPSSNFGTQTYTCNVDHKPSNTKVDKTVERKCCVECPPCPAPPVAGPSVFLFPPKPKDTLMISRTPEVTCVVVDVSHEDPEVQFNWYVDGVEVHNAKTKPREEQFNSTFRVVSVLTVVHQDWLNGKEYKCKVSNKGLPAPIEKTISKTKGQPREPQVYTLPPSREEMTKNQVSLTCLVKGFYPSDIAVEWESNGQPENNYKTTPPMLDSDGSFFLYSKLTVDKSRWQQGNVFSCSVMHEALHNHYTQKSLSLSPGK
light: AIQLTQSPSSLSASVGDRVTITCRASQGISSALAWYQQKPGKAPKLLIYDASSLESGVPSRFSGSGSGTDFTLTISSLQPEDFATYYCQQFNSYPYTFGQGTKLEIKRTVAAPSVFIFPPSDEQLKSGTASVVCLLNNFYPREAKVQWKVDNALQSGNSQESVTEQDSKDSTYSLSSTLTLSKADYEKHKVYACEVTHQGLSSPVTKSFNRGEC
B2: anti-GITR-IgG2-IgG1.1 (antibody)
heavy: QVQLVESGGGVVQPGRSLRLSCAASGFTFSSYGMHWVRQAPGKGLEWVAVIWYEGSNKYYADSVKGRFTISRDNSKNTLYLQMNSLRAEDTAVYYCARGGSMVRGDYYYGMDVWGQGTTVTVSSASTKGPSVFPLAPCSRSTSESTAALGCLVKDYFPEPVTVSWNSGALTSGVHTFPAVLQSSGLYSLSSVVTVPSSNFGTQTYTCNVDHKPSNTKVDKTVERKCCVECPPCPAPPVAGPSVFLFPPKPKDTLMISRTPEVTCVVVDVSHEDPEVKFNWYVDGVEVHNAKTKPREEQYNSTYRVVSVLTVLHQDWLNGKEYKCKVSNKALPSSIEKTISKAKGQPREPQVYTLPPSREEMTKNQVSLTCLVKGFYPSDIAVEWESNGQPENNYKTTPPVLDSDGSFFLYSKLTVDKSRWQQGNVFSCSVMHEALHNHYTQKSLSLSPG
light: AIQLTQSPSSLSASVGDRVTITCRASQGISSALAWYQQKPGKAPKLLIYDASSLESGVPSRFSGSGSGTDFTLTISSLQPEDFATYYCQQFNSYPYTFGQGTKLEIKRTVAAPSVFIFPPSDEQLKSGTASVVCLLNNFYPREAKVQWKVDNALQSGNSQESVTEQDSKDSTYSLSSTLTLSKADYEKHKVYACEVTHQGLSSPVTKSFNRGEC

Target: T1, human GITR on cells (activated human T …)
Test: FACS binding to activated human CD4 T cells

Binder | EC50 [pM]
B1 | 277
B2 | 163
